Legend:
[1] = molecular target: human PDGFR on BJ-5ta human fibroblasts (human) (UniProt P09619); assay: flow cytometry on cells, soluble ligand titrated, anti-FLAG-PE
[2] = molecular target: mouse PDGFR on NIH/3T3 mouse fibroblasts (mouse) (UniProt P05622); assay: as above
[3] = molecular target: human PDGFR on BJ-5ta human fibroblasts (human) (UniProt P09619); assay: flow cytometry on BJ-5ta cells, soluble ligand titrated 5 h at 4 C, anti-FLAG-PE
[4] = molecular target: mouse PDGFR on NIH/3T3 mouse fibroblasts (mouse) (UniProt P05622); assay: flow cytometry on NIH/3T3 cells, soluble ligand titrated 5 h at 4 C, anti-FLAG-PE
[5] = molecular target: human PDGFR on BJ-5ta human fibroblasts (human) (UniProt P09619); assay: flow cytometry titration of the soluble FLAG-tagged protein on BJ-5ta cells, anti-FLAG detection

Sequence of scPDGF, single-chain version of wild-type PDGF-BB, soluble, FLAG and hexahistidine tags (ligand) (chain, part): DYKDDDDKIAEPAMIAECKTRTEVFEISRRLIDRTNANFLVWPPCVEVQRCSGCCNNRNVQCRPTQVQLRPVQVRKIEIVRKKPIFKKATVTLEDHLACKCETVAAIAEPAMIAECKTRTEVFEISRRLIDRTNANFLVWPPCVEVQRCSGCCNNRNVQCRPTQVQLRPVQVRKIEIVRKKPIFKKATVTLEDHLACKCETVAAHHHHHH

## scPDGF, single-chain version of wild-type PDGF-BB, soluble, FLAG and hexahistidine tags (ligand)
[1]
  Kd: 1.5 pM
[2]
  Kd: 2.5 pM
[3]
  Kd: 1.5 pM
[4]
  Kd: 2.7 pM
[5]
  EC50 (read off the curve): 1 pM
